According to US20190365894A1 (GMAX BIOPHARM, published 2019):
Substitutions are numbered along the chain they refer to. Blank lines part the entries; values can stand above or below the binder they belong to.

Tests used:
[1] = target: T1, human endothelin A receptor (hETAR) (human, UniProt P25101 21-427); test: FACS on CHO-DHFR-ETAR cells against CHO-DHFR- cells
T1 construct: Expressed on stably transfected CHO-DHFR- cells; also called human endothelin receptor; CHO-DHFR-hETAR
T1 sequence: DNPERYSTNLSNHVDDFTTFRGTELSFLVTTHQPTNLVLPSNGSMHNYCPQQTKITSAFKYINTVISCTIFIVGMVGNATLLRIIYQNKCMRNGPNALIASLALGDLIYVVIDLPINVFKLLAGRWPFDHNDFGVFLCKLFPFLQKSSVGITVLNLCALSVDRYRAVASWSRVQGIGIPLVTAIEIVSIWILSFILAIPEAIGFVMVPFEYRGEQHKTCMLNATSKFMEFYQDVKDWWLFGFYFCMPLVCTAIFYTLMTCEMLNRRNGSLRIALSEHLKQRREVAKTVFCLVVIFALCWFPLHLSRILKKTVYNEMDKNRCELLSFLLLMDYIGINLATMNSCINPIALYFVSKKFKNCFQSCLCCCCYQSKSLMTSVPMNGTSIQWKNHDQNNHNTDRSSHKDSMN
Protocol: PBS containing 10 mM EDTA was used to detach and collect 10⁵ CHO-DHFR-hETAR cells into a 1.5 mL EP tube. The supernatant was removed after centrifugation and the negative control sample was resuspended with a loading buffer (PBS, 2% FBS). For the positive control, 200 μL antibody supernatant was added to resuspension cells and incubation at room temperature; the cells were then centrifuged at 1500 rpm to remove the supernatant, washed with a FACS loading buffer and centrifuged again. The cells were resuspended with addition (200 μL/well) of a FITC labeled goat anti-mouse fluorescent antibody at 1:50 dilution (BD Pharmingen) and incubated at room temperature for 30 min in the dark. Supernatant was removed after centrifugation, cells were washed with FACS loading buffer, centrifuged again and resuspended with the loading buffer for analysis.

[2] = target: T1, human endothelin A receptor (hETAR); test: cell-based or functional assay

B1: anti-ETAR antibody A-12 (antibody, V domains shown)
VH: EVKLVESGGRLVQPGNSLRLSCATSGFTFSDYYMSWVRQTPGRALEWLSFIRNRANGYTTEYSASVKGRFTISRDNSQSILYLHMSTLRPEDSATYYCVRDSYHYGYFDVWGAGTTVTVSS
VL: EIQMTQTPSSLSASLGDRVTITCSASQGINNYLNWYQQKPGGKTRLLIYYTSTLQSGVPSRFSGSGSGTHYSLTISNLEPEDIATYYCQQFSKLRTFGGGTRLEIKR
notes: also called L12H12
binding result [1]: binds

B2: anti-ETAR antibody A-1 (antibody, V domains shown)
VH: QVTLKESGPGILQPSQTLSLTCSFSGFSLTTSGLGVAWIRQPSGKGLEWLAHIWSDGDTRYYPALKNRLTISKDSSSNQVFLKIARVDTADTATYYCARMKDDSLYFDNWGQGTIFTVSS
VL: DILLTQSPAILSVSPGKRVSFSCRASQNIGTSIHWYQQRTNGSPRLLIKYASKSISGISSRFSGSGSGTDFTLSINSVESEDIAAYYCQHSYSWPWTFGGGTKLEIKR
calcium flux assay, inhibition of human ETAR (IC50) [2]: 37.9 nM

B3: anti-ETAR antibody A-9 (antibody, V domains shown)
VH: EVQLQQPGGGLVQPGGSLTLSCATSGFTFSSYGMSWVRQTPAKRLELVATISTNGATANYPDSVKGRFTISRDNAKSTLYLQMRSLKSEDTAMYYCATEKGAMGYWGQGTSVTVSS
VL: DVLMTQTPLSLPVSLGDQASISCRSSQNIVHSTGNTYLEWYLQKPGQSPKLLIYKVSNRFSGVPNRFRGSGSGTDFTLKITRVEAEDLGIYYCFQGSHFPFTFGSGTKLEIKR
calcium flux assay, inhibition of human ETAR (IC50) [2]: 87.8 nM

Second part, the binder after the results:

binding result [1]: binds
B4: anti-ETAR antibody A-7 (antibody, V domains shown)
VH: EVHLVESGGGLVQPGGSLKLSCAASGFTFSTYGMSWVRQTPDKRLELVATINTNGGTTYYRDSVKGRFTISRDNAKNTLYLQMSSLKSDDTAMYYCARDYGAMDYWGQGTSVTVSS
VL: B3 VL with Q18H, N28Y, N35T, K50Q, N65D, R68T, K79R, T81S, I90V, Y92F
notes: also called L7H7

binding result [1]: binds
B5: anti-ETAR antibody A-2 (antibody, V domains shown)
VH: QIQLVQSGAELAKPGASVRMSCETSGYTFTSYWIHWIKERPGQGLEWIGYINPDTDYSEYNQKFKDKARLTADKSSTTAYMELNSLTFDDSAVYYCASAGYYFFDFWGQGTTLTVSS
VL: DIQMTQSPASLSTSVGETVTITCRASENIYSYLAWYQQRQGKSPHLLVNNAKTLAEGVPSRFSGSGSGTHFSLRISGLQPEDFGSYYCQHHYGIPFTFGGGTKLSIKR
notes: also called L2H2
